The text below walks through data of PMC12350170, “Structural basis for the synergistic assembly of the snRNA export complex” (Nature Structural & Molecular Biology, 2025).

Conditions in all cases: both partners purified
Experiment [1] has as its target T1, CBP80ΔNLS (subunit of the human CBC) (human, UniProt Q09161 20-790).
T1 construct: CBP80 (NCBP1), human, lacking the N-terminal 19 residues; Stood in the assay as part of CBC; made a molecule of its own for the contacts seen in the structure; also called NCBP1; source: High Five insect cells; purified together with CBP20 as CBC
T1 sequence (looked up): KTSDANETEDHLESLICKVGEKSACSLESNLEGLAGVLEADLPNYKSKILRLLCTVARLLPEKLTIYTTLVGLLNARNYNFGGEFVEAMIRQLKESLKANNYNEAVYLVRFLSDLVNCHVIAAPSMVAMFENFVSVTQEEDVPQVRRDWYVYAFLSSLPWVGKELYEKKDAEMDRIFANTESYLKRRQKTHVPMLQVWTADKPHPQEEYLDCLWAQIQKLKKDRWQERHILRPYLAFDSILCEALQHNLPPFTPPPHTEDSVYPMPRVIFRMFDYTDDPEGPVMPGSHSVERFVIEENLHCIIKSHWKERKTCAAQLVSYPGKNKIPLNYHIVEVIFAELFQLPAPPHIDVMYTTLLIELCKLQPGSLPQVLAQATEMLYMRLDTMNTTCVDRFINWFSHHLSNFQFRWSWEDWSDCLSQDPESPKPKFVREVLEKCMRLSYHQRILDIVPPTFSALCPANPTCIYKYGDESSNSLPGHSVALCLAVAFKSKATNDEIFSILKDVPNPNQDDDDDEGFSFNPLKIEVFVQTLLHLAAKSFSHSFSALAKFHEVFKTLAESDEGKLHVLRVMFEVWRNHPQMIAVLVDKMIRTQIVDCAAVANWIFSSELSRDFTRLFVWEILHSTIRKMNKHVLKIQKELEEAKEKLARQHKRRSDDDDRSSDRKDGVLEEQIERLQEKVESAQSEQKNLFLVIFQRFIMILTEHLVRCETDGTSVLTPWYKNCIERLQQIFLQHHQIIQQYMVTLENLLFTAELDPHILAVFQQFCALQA
As to the kind of experiment: cryo-EM structure; snRNA export complex of CBC, CK2-phosphorylated PHAX, CRM1, Ran(Q69L)GTP and 14-nt capped RNA, purified on Superdex 200 Increase; Titan Krios 300 kV.

Experiment [2] concerns the target T2, Human full-length PHAX, phosphorylated in vitro by CK2 (human, UniProt Q9H814 1-394, phosphorylated by CK2 in vitro: between 3 and 5 phosphorylated sites, up to four within ST2 (residues 64–76); the positions are not given).
T2 construct: PHAX (Phosphorylated Adaptor for RNA Export), human, 394 amino acid residues; also called P-PHAX; phosphorylated PHAX; source: E. coli BL21Star (DE3), pETM11, purified (Ni2+-chelating Sepharose, heparin, Superdex 200); then treated with CK2 and ATP
The experiment is described as above.

Experiment [3] addresses T3, Human CRM1 (human, UniProt O14980 1-1071).
T3 construct: CRM1 (XPO1), human; also called XPO1; exportin CRM1; source: E. coli Tg1, pQE60, purified (Ni2+-chelating Sepharose, heparin, Superdex 200)
As to the kind of experiment: SEC; Superdex 200 Increase 3.2/300; 180 pmol CBC and 360 pmol PHAX construct, CRM1 and RanGTP mixed with 100 μM capped 14-nt RNA (or U1 snRNA), 1 mM Mg2+, 1 mM KCl, 100 μM GTP, 30 min on ice; fractions on SDS-PAGE.

In experiment [4] the target is T4, Human nuclear cap-binding complex (CBC): CBP80ΔNLS with CBP20 (human, UniProt Q09161 20-790; P52298 1-156).
T4 construct: CBP80 (NCBP1), human, CBP80ΔNLS lacking the N-terminal 19 residues; CBP20 (NCBP2), human; also called CBP80–CBP20; source: CBP80ΔNLS in High Five insect cells, CBP20 in E. coli BL21Star (DE3); pellets lysed together, purified (Ni2+-chelating Sepharose, TEV, heparin, Superdex 200)
T4 sequence 1: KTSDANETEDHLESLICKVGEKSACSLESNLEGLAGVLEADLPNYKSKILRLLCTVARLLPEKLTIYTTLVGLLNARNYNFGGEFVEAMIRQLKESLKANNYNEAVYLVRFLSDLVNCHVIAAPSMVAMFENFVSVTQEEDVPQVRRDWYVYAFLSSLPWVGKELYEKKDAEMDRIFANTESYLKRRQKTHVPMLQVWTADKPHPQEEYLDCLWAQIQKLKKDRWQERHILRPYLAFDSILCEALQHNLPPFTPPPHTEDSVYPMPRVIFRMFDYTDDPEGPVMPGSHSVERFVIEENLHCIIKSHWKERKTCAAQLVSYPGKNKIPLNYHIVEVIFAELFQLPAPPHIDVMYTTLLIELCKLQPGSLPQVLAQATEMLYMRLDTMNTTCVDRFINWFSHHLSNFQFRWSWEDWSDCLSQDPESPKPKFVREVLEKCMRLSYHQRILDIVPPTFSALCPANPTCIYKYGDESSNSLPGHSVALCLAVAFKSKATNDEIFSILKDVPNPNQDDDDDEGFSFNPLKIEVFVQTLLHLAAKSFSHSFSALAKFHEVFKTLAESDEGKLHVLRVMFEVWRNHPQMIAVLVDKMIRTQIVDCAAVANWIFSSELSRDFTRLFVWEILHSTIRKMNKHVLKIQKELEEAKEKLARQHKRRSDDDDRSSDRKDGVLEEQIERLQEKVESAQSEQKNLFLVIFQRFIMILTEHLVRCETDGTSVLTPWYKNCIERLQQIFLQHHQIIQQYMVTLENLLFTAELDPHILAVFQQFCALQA
T4 sequence 2: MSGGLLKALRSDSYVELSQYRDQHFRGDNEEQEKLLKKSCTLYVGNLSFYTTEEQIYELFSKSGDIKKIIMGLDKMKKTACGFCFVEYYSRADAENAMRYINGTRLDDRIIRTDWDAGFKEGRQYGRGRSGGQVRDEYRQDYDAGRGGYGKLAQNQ
The experiment is described as above.

Experiment [5] addresses Human Ran Q69L bound to GTP (human, UniProt P62826 1-216, Q69L). The experiment is described as above.
For experiment [6], the target named is T4, Human nuclear cap-binding complex …. As to the kind of experiment: ITC; 25 °C, PEAQ-ITC; 0.2–0.25 mM PHAX 103–196 or mutant injected into 20 µM CBC in the presence or absence of 0.1 mM m7GTP or m7GpppG; 20 mM Tris pH 8.0, 100 mM NaCl, 2% glycerol; one-site model.

T2 sequence (Q9H814 whole entry, the tested form may be a part): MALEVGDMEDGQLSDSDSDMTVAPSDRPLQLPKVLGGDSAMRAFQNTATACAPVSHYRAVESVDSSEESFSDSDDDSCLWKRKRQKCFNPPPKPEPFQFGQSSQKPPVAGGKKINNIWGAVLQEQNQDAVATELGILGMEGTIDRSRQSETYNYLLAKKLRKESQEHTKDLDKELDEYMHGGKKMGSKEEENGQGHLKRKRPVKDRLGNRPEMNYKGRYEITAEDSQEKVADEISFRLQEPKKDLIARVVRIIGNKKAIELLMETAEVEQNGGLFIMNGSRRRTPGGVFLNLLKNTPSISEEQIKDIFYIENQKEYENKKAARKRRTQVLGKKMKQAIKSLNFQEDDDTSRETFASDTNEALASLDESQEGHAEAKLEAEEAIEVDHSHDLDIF
T3 sequence (O14980 whole entry): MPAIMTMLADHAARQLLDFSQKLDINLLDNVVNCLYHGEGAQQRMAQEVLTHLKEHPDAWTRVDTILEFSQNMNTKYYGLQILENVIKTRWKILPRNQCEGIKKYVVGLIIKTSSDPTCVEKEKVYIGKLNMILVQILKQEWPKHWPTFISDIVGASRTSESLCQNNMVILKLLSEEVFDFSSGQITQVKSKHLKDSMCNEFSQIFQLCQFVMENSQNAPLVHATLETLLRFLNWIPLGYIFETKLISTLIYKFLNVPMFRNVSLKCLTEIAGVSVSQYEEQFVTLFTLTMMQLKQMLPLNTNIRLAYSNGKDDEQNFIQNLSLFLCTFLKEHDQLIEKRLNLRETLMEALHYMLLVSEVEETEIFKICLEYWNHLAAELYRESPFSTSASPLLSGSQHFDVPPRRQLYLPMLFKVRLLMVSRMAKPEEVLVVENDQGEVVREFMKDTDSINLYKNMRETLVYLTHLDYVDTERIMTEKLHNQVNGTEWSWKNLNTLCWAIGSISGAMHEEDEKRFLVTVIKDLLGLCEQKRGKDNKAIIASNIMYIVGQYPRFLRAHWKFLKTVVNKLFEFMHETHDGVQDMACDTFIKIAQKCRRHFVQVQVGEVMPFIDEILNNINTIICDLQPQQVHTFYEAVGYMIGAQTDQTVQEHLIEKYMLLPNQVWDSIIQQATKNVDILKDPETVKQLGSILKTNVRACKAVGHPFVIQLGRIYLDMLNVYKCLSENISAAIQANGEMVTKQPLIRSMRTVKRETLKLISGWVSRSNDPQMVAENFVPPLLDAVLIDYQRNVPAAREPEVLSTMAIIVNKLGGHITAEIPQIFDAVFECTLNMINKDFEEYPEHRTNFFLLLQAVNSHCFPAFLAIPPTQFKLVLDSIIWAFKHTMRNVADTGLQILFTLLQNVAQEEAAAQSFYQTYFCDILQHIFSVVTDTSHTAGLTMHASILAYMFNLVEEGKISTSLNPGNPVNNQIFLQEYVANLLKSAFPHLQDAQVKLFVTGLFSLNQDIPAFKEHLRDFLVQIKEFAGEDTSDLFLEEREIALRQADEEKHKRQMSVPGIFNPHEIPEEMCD

B1: CBP20 (subunit of the human CBC) (natural protein)
chain: MSGGLLKALRSDSYVELSQYRDQHFRGDNEEQEKLLKKSCTLYVGNLSFYTTEEQIYELFSKSGDIKKIIMGLDKMKKTACGFCFVEYYSRADAENAMRYINGTRLDDRIIRTDWDAGFKEGRQYGRGRSGGQVRDEYRQDYDAGRGGYGKLAQNQ
notes: CBP20 (NCBP2), human; Stood in the assay as part of CBC; made a molecule of its own for the contacts seen in the structure; also called NCBP2; source: E. coli BL21Star (DE3), pETM30; purified together with CBP80ΔNLS as CBC
For the molecule B1, the binding result in experiment [1] and in experiment [2] was “binds” each time.

B2: MBP-PHAX103–196 (wild type) (domain or fragment, human, UniProt Q9H814 103-196, looked up)
chain: SQKPPVAGGKKINNIWGAVLQEQNQDAVATELGILGMEGTIDRSRQSETYNYLLAKKLRKESQEHTKDLDKELDEYMHGGKKMGSKEEENGQGH
notes: source: E. coli BL21Star (DE3), pETM41, purified (Ni2+-chelating Sepharose, Superdex 200); not shown: MBP, N-terminal, kept
Consider B2, for which the binding result in experiment [3], in experiment [4] and in experiment [5] was “binds” throughout.

B3: MBP-PHAX103–196 Y154A (domain or fragment, human, UniProt Q9H814 103-196, looked up)
chain: SQKPPVAGGKKINNIWGAVLQEQNQDAVATELGILGMEGTIDRSRQSETYNALLAKKLRKESQEHTKDLDKELDEYMHGGKKMGSKEEENGQGH
notes: as for B2
Take B3: the binding result in experiment [4] was “binds”.

B4: MBP-PHAX103–196 R147E, Y152E, Y154E (domain or fragment, human, UniProt Q9H814 103-196, looked up)
chain: SQKPPVAGGKKINNIWGAVLQEQNQDAVATELGILGMEGTIDRSEQSETENELLAKKLRKESQEHTKDLDKELDEYMHGGKKMGSKEEENGQGH
notes: as for B2
With B4, in experiment [6], the binding result is “binds”.
